The record followed here is PMC8537613.

This assay addresses NiV F clamp (Nipah virus (Malaysia strain)) (UniProt Q9IH63). The assay is described as follows: SEC.

In general, stoichiometry N refers to the number of molecules, sites or subunits per partner or assembly.

“NiV F clamp (from UniProt Q9IH63 27-483)” returned a stoichiometry N of 3.
